# Reference: patent EP4671273A1 (Anaveon AG, dated 2025)
# Residue numbers refer to the chain shown, from its start.
# B1: ULS916 (bispecific antibody, human IgG1, kappa, lambda, L234A L235A)
# heavy 1: EVQLLESGGGLVQPGGSLRLSCAASGFTFSINAMTWVRQAPGKGLEWVSTISGSGFSTYYADSLKGRFTISRDNSKNTLYLQMNSLRAEDTAVYYCAKEVYGDYWGQGTLVTVSSASTKGPSVFPLAPSSKSTSGGTAALGCLVKDYFPEPVTVSWNSGALTSGVHTFPAVLQSSGLYSLSSVVTVPSSSLGTQTYICNVNHKPSNTKVDKRVEPKSCDKTHTCPPCPAPEAAGGPSVFLFPPKPKDTLMISRTPEVTCVVVDVSHEDPEVKFNWYVDGVEVHNAKTKPREEQYNSTYRVVSVLTVLHQDWLNGKEYKCKVSNKALAAPIEKTISKAKGQPREPQVCTLPPSREEMTKNQVSLSCAVKGFYPSDIAVEWESNGQPENNYKTTPPVLDSDGSFFLVSKLTVDKSRWQQGNVFSCSVMHEALHNHYTQKSLSLSPGK
# light 1: not shown
# heavy 2: QVQLQESGPGLVKPSETLSLTCTVSGGSISSDYWGWIRQPPGKGLEWIGYISYRGSTNYNPSLKSRVTISVDTSRNQFSLKLSSVTAADTAVYYCARSAGVTDFDAWGQGTLVTVSSASTKGPSVFPLAPSSKSTSGGTAALGCLVKDYFPEPVTVSWNSGALTSGVHTFPAVLQSSGLYSLSSVVTVPSSSLGTQTYICNVNHKPSNTKVDKRVEPKSCDKTHTCPPCPAPEAAGGPSVFLFPPKPKDTLMISRTPEVTCVVVDVSHEDPEVKFNWYVDGVEVHNAKTKPREEQYNSTYRVVSVLTVLHQDWLNGKEYKCKVSNKALAAPIEKTISKAKGQPREPQVYTLPPCREEMTKNQVSLWCLVKGFYPSDIAVEWESNGQPENNYKTTPPVLDSDGSFFLYSKLTVDKSRWQQGNVFSCSVMHEALHNHYTQKSLSLSPGK
# light 2: not shown
# B2: VYL308 (bispecific antibody, human IgG1, kappa, lambda, L234A L235A)
# heavy 1: B1 heavy 1
# light 1: not shown
# heavy 2: B1 heavy 2
# light 2: not shown
# B3: UNY098 (bispecific antibody, human IgG1, kappa, lambda, L234A L235A)
# heavy 1: B1 heavy 1
# light 1: not shown
# heavy 2: B1 heavy 2
# light 2: not shown
# B4: EJD551 (bispecific antibody, human IgG1, kappa, lambda, L234A L235A)
# heavy 1: B1 heavy 1
# light: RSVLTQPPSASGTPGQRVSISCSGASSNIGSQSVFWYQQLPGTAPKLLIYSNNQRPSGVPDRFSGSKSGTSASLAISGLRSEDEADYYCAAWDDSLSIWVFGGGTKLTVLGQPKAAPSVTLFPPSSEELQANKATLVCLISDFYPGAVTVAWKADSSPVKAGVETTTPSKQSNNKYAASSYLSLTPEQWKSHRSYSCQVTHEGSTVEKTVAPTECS
# heavy 2: B1 heavy 2 with A106W
# chain: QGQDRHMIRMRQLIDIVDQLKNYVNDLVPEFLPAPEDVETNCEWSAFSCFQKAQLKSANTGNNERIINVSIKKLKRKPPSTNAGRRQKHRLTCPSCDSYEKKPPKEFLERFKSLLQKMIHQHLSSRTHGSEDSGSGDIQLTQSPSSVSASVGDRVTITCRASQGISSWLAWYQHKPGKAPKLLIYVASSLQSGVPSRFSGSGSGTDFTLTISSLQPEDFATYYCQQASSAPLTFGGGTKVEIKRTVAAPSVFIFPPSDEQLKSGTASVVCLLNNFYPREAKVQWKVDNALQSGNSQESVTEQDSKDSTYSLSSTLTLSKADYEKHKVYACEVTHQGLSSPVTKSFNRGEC
# B5: ECW089 (bispecific antibody, human IgG1, kappa, lambda, L234A L235A)
# heavy 1: B1 heavy 1
# light 1: not shown
# heavy 2: B1 heavy 2
# light 2: not shown
# B6: EDV817 (bispecific antibody, human IgG1, kappa, lambda, L234A L235A)
# heavy 1: B1 heavy 1
# light 1: not shown
# heavy 2: B1 heavy 2
# light 2: not shown
# B7: GSV075 (bispecific antibody, human IgG1, kappa, lambda, L234A L235A)
# heavy 1: B1 heavy 1
# light 1: not shown
# heavy 2: B1 heavy 2 with A106W
# light 2: not shown
# B8: ETR048 (bispecific antibody, human IgG1, kappa, lambda, L234A L235A)
# heavy 1: B1 heavy 1
# light 1: not shown
# heavy 2: B1 heavy 2 with A106W
# light 2: not shown
# B9: GMH764 (bispecific antibody, human IgG1, kappa, lambda, L234A L235A)
# heavy 1: B1 heavy 1
# light 1: not shown
# heavy 2: B1 heavy 2 with A106W
# light 2: not shown
# B10: BBU753 (bispecific antibody, human IgG1, kappa, lambda, L234A L235A)
# heavy 1: B1 heavy 1
# light 1: not shown
# heavy 2: B1 heavy 2 with Y33F, Y53S, S65R, T102A, A106F
# light 2: not shown
# B11: ZBA121 (bispecific antibody, human IgG1, kappa, lambda, L234A L235A)
# heavy 1: B1 heavy 1
# light 1: not shown
# heavy 2: not shown
# light 2: DIQMTQSPSSVSASVGDRVTITCRASQGISSWLAWYQHKPGKAPKLLIYVASSLQSGVPSRFSGSGSGTDFTLTISSLQPEDFATYYCQQANSFPLTFGGGTKVEIKRTVAAPSVFIFPPSDEQLKSGTASVVCLLNNFYPREAKVQWKVDNALQSGNSQESVTEQDSKDSTYSLSSTLTLSKADYEKHKVYACEVTHQGLSSPVTKSFNRGEC
# B12: JKJ112 (bispecific antibody, human IgG1, kappa, lambda, L234A L235A)
# heavy 1: B1 heavy 1
# light 1: not shown
# heavy 2: not shown
# light 2: B11 light 2
# B13: EXX354 (bispecific antibody, human IgG1, kappa, lambda, L234A L235A)
# heavy 1: B1 heavy 1
# light 1: not shown
# heavy 2: not shown
# light 2: B11 light 2 with F94A
# B14: OUQ507 (bispecific antibody, human IgG1, kappa, lambda, L234A L235A)
# heavy 1: B1 heavy 1
# light 1: not shown
# heavy 2: not shown
# light 2: B11 light 2 with F94A
# B15: CMQ332 (bispecific antibody, human IgG1, kappa, lambda, L234A L235A)
# heavy 1: B1 heavy 1
# light 1: not shown
# heavy 2: not shown
# light 2: B11 light 2 with F94A
# B16: JAK529 (bispecific antibody, human IgG1, kappa, lambda, L234A L235A)
# heavy 1: B1 heavy 1
# light 1: not shown
# heavy 2: not shown
# light 2: B11 light 2 with F94A
# B17: DHJ369 (bispecific antibody, human IgG1, kappa, lambda, L234A L235A)
# heavy 1: B1 heavy 1
# light 1: not shown
# heavy 2: not shown
# light 2: B11 light 2
# B18: IFM656 (bispecific antibody, human IgG1, kappa, lambda, L234A L235A)
# heavy 1: B1 heavy 1
# light 1: not shown
# heavy 2: not shown
# light 2: B11 light 2 with M4L, N92S
# B19: SUR250 (bispecific antibody, human IgG1, kappa, lambda, L234A L235A)
# heavy 1: B1 heavy 1
# light 1: not shown
# heavy 2: not shown
# light 2: B11 light 2 with M4L, N92S
# Biological target: T1, human IL-21 receptor (IL-21R) on cells (human, UniProt Q9HBE5 20-538; P31785 23-369)
# Test: cell-based or functional assay
# T1 sequence (Q9HBE5 20-538, chain 1 of 2): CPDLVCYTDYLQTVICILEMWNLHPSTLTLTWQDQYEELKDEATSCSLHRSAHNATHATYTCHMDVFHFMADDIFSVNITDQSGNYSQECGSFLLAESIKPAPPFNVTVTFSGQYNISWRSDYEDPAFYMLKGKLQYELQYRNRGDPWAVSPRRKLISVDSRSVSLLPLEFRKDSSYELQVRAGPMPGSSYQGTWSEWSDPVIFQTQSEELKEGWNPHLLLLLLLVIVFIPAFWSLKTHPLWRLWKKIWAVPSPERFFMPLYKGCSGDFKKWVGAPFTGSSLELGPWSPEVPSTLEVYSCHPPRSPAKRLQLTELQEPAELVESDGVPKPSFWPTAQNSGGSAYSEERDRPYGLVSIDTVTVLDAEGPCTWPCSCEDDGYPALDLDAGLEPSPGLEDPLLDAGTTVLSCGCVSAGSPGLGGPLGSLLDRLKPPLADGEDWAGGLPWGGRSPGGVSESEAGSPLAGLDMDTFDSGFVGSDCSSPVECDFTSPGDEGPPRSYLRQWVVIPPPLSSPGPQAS
# T1 sequence (P31785 23-369, chain 2 of 2): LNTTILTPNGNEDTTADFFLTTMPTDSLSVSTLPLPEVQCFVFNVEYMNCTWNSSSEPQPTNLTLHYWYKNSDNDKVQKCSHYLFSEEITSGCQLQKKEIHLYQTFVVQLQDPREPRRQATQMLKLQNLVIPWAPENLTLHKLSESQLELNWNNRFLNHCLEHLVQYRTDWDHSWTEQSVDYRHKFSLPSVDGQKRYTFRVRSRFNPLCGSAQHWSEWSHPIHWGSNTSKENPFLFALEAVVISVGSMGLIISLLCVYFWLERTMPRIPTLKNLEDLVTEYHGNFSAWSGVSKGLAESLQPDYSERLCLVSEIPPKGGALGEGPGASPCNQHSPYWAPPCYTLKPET
"EC50B, pSTAT3+ Jurkat PD-1 cells, PD-1 blocked","EC50NB, pSTAT3+ Jurkat PD-1 cells [pM]",Binder
0.873 nM,6,B1
56 pM,0.7,B2
0.333 nM,7,B3

# Biological target: T1, human IL-21 receptor (IL-21R) on cells
# Test: cell-based or functional assay
# Remark: another data set of the same source
"EC50B, pSTAT3+ Jurkat PD-1 cells, PD-1 blocked [nM]","EC50NB, pSTAT3+ Jurkat PD-1 cells [pM]",Binder
1.06,16,B4
0.13,96.3,B5
0.13,96.9,B6
0.627,23,B7
0.751,12,B8
0.872,13,B9
0.312,15,B10

# Biological target: T1, human IL-21 receptor (IL-21R) on cells
# Test: cell-based or functional assay
# Remark: another data set of the same source
"EC50B, pSTAT3+ Jurkat PD-1 cells, PD-1 blocked","EC50NB, pSTAT3+ Jurkat PD-1 cells",Binder
103 nM,0.86 nM,B11
17.2 nM,0.52 nM,B12
0.28 nM,39 pM,B13
0.42 nM,24 pM,B14
34 pM,12 pM,B15
0.44 nM,27 pM,B16
2.56 nM,0.24 nM,B17
15.9 nM,0.21 nM,B18
5.36 nM,80 pM,B19
